Experimental data as given in the supplement of paper PMC9112550, “Optimization of the antimicrobial peptide Bac7 by deep mutational scanning” (BMC Biology, 2022).

Test system: Escherichia coli TOP10
Experiment: shrunken log2 fold change of peptide-encoding DNA abundance (4.5 h post-induction vs induction); higher = less antimicrobial activity (less host growth inhibition)
Details: time post-induction: 4.5 h; library: site-saturation at positions 5, 18, 19, 20
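Note: peptides expressed intracellularly from a pBAD plasmid library in pooled LB shake-flask culture, induced with 0.3% L-arabinose, DNA abundance read by NGS, three biological replicates, DESeq2 with apeglm shrinkage.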

Sequence | shrunken log2 fold change
RRIRCRPPRLPRPRPRPPIQPRP | 0.369
RRIRSRPPRLPRPRPRPTHHPRP | 0.189
RRIRVRPPRLPRPRPRPEWWPRP | 0.191
RRIRGRPPRLPRPRPRPPANPRP | 1.12
RRIRNRPPRLPRPRPRPWDAPRP | -0.157
RRIRPRPPRLPRPRPRPAYDPRP | -0.26
RRIRSRPPRLPRPRPRPEVKPRP | 0.287
RRIRPRPPRLPRPRPRPSCNPRP | -0.314
RRIRKRPPRLPRPRPRPAGCPRP | 0.702
RRIRARPPRLPRPRPRPINFPRP | 0.0601
RRIRARPPRLPRPRPRPHFWPRP | 0.23
RRIRLRPPRLPRPRPRPLTIPRP | -0.0053
RRIRIRPPRLPRPRPRPRILPRP | -0.188
RRIRARPPRLPRPRPRPITRPRP | 0.00663
RRIRGRPPRLPRPRPRPWNNPRP | 0.139
RRIRPRPPRLPRPRPRPIAFPRP | -0.00102
RRIRMRPPRLPRPRPRPVGWPRP | 1.37
RRIRERPPRLPRPRPRPYIYPRP | -0.254
RRIRARPPRLPRPRPRPQCTPRP | -0.0222
RRIRVRPPRLPRPRPRPDQYPRP | -0.234
RRIRKRPPRLPRPRPRPSYAPRP | 0.0314
RRIRCRPPRLPRPRPRPNNLPRP | -0.765
RRIRVRPPRLPRPRPRPVRWPRP | 0.805
RRIRCRPPRLPRPRPRPADLPRP | -0.24
RRIRKRPPRLPRPRPRPWPRPRP | 0.264

Sequence | shrunken log2 fold change
RRIRCRPPRLPRPRPRPLTHPRP | -0.345
RRIRQRPPRLPRPRPRPPMFPRP | -0.325
RRIRQRPPRLPRPRPRPGVHPRP | 0.0118
RRIRNRPPRLPRPRPRPPVVPRP | 0.000966
RRIRIRPPRLPRPRPRPEIVPRP | -0.255
RRIRPRPPRLPRPRPRPFSCPRP | -0.106
RRIRDRPPRLPRPRPRPVKFPRP | 0.284
RRIRWRPPRLPRPRPRPKTPPRP | 0.894
RRIRNRPPRLPRPRPRPRDIPRP | -0.138
RRIRKRPPRLPRPRPRPIVIPRP | -0.0175
RRIRWRPPRLPRPRPRPAHVPRP | -0.0191
RRIRQRPPRLPRPRPRPPPEPRP | 0.952
RRIRIRPPRLPRPRPRPKWAPRP | -0.105
RRIRWRPPRLPRPRPRPVQTPRP | 0.459
RRIRVRPPRLPRPRPRPWQCPRP | -0.00264
RRIRIRPPRLPRPRPRPWGHPRP | -0.0191
RRIRSRPPRLPRPRPRPLEEPRP | 0.411
RRIRSRPPRLPRPRPRPRWWPRP | 1.26
RRIRIRPPRLPRPRPRPNCSPRP | -0.175
RRIRERPPRLPRPRPRPHDRPRP | -0.00992
RRIRCRPPRLPRPRPRPTWAPRP | 0.118
RRIRPRPPRLPRPRPRPQPFPRP | -0.149
RRIRMRPPRLPRPRPRPHLIPRP | 0.133
RRIRMRPPRLPRPRPRPYSHPRP | -0.352
RRIRERPPRLPRPRPRPGRSPRP | -0.032

Sequence | shrunken log2 fold change
RRIRLRPPRLPRPRPRPIDGPRP | -0.0968
RRIRARPPRLPRPRPRPQLKPRP | 0.237
RRIRCRPPRLPRPRPRPLNFPRP | -0.0754
RRIRWRPPRLPRPRPRPTTMPRP | -0.0212
RRIRERPPRLPRPRPRPINAPRP | -0.129
RRIRTRPPRLPRPRPRPIDTPRP | -0.157
RRIRYRPPRLPRPRPRPDTHPRP | -0.22
RRIRSRPPRLPRPRPRPLCLPRP | 0.259
RRIRLRPPRLPRPRPRPFYSPRP | -0.133
RRIRNRPPRLPRPRPRPPYVPRP | -0.0374
RRIRMRPPRLPRPRPRPCQAPRP | 0.0538
RRIRPRPPRLPRPRPRPCCHPRP | 0.0505
RRIRIRPPRLPRPRPRPFTAPRP | -0.138
RRIRCRPPRLPRPRPRPNWCPRP | -0.0555
RRIRVRPPRLPRPRPRPTKYPRP | -0.523
RRIRARPPRLPRPRPRPKSAPRP | 0.709
RRIRKRPPRLPRPRPRPPDWPRP | 1.48
RRIRYRPPRLPRPRPRPKIAPRP | -0.404
RRIRKRPPRLPRPRPRPDEDPRP | -0.00112
RRIRHRPPRLPRPRPRPCPYPRP | -0.546
RRIRWRPPRLPRPRPRPSWWPRP | 0.2
RRIRHRPPRLPRPRPRPHMGPRP | -0.238
RRIRNRPPRLPRPRPRPCTPPRP | -0.3
RRIRKRPPRLPRPRPRPQCWPRP | 0.00452
RRIRTRPPRLPRPRPRPSIAPRP | -0.281

Sequence | shrunken log2 fold change
RRIRSRPPRLPRPRPRPQTFPRP | -0.136
RRIRLRPPRLPRPRPRPVRPPRP | -0.0457
RRIRDRPPRLPRPRPRPLINPRP | 0.125
RRIRQRPPRLPRPRPRPIWNPRP | -0.183
RRIRMRPPRLPRPRPRPWWSPRP | 0.334
RRIRVRPPRLPRPRPRPFSSPRP | -0.068
RRIRRRPPRLPRPRPRPWSTPRP | -0.0543
RRIRIRPPRLPRPRPRPHHVPRP | -0.091
RRIRVRPPRLPRPRPRPKISPRP | -0.234
RRIRYRPPRLPRPRPRPVAAPRP | 0.149
RRIRARPPRLPRPRPRPSRAPRP | 0.555
RRIRRRPPRLPRPRPRPQKRPRP | 0.13
RRIRERPPRLPRPRPRPGWYPRP | -0.0987
RRIRKRPPRLPRPRPRPMFPPRP | -0.187
RRIRTRPPRLPRPRPRPRTPPRP | 0.138
RRIRWRPPRLPRPRPRPYDIPRP | -0.00748
RRIRDRPPRLPRPRPRPSEAPRP | 0.0437
RRIRNRPPRLPRPRPRPMRFPRP | -0.00968
RRIRLRPPRLPRPRPRPFGHPRP | -0.177
RRIRYRPPRLPRPRPRPTLLPRP | -0.703
RRIRMRPPRLPRPRPRPFMVPRP | -0.161
RRIRCRPPRLPRPRPRPNHVPRP | -0.248
RRIRFRPPRLPRPRPRPALSPRP | 0.319
RRIRFRPPRLPRPRPRPTTDPRP | -0.13
RRIRMRPPRLPRPRPRPKMAPRP | 2.29

Sequence | shrunken log2 fold change
RRIRERPPRLPRPRPRPCEMPRP | 0.118
RRIRDRPPRLPRPRPRPNLHPRP | -0.0379
RRIRYRPPRLPRPRPRPRYKPRP | -0.451
RRIRKRPPRLPRPRPRPPWVPRP | 0.221
RRIRGRPPRLPRPRPRPSNWPRP | 1.12
RRIRCRPPRLPRPRPRPMFPPRP | -0.511
RRIRPRPPRLPRPRPRPLHCPRP | -0.382
RRIRERPPRLPRPRPRPCKHPRP | -0.5
RRIRERPPRLPRPRPRPYNEPRP | -0.178
RRIRGRPPRLPRPRPRPAKYPRP | 0.155
RRIRWRPPRLPRPRPRPQHPPRP | 0.0134
RRIRPRPPRLPRPRPRPCLLPRP | -0.258
RRIRMRPPRLPRPRPRPMFFPRP | -0.0106
RRIRRRPPRLPRPRPRPSQYPRP | 0.0176
RRIRGRPPRLPRPRPRPMDDPRP | 0.994
RRIRVRPPRLPRPRPRPITQPRP | -0.0754
RRIRGRPPRLPRPRPRPCRIPRP | -0.0785
RRIRRRPPRLPRPRPRPKCYPRP | 0.00463
RRIRFRPPRLPRPRPRPFWAPRP | 0.166
RRIRERPPRLPRPRPRPTWSPRP | -0.268
RRIRCRPPRLPRPRPRPWNCPRP | -0.142
RRIRKRPPRLPRPRPRPASDPRP | 0.981
RRIRHRPPRLPRPRPRPMTWPRP | 0.148
RRIRERPPRLPRPRPRPCGKPRP | -0.00192
RRIRKRPPRLPRPRPRPMHQPRP | 0.003

Sequence | shrunken log2 fold change
RRIRYRPPRLPRPRPRPINNPRP | -0.892
RRIRVRPPRLPRPRPRPLTLPRP | -0.416
RRIRGRPPRLPRPRPRPNKHPRP | 0.124
RRIRCRPPRLPRPRPRPGDQPRP | 0.256
RRIRIRPPRLPRPRPRPILEPRP | 0.0083
RRIRGRPPRLPRPRPRPENIPRP | 0.204
RRIRRRPPRLPRPRPRPVKKPRP | 0.0447
RRIRWRPPRLPRPRPRPARYPRP | -0.0422
RRIRFRPPRLPRPRPRPLLYPRP | -1.01
RRIRGRPPRLPRPRPRPQHSPRP | -0.0223
RRIRTRPPRLPRPRPRPVTGPRP | -0.083
RRIRRRPPRLPRPRPRPQHIPRP | -0.338
RRIRMRPPRLPRPRPRPHMMPRP | -0.135
RRIRPRPPRLPRPRPRPFYKPRP | -0.25
RRIRMRPPRLPRPRPRPLLVPRP | 0.199
RRIRWRPPRLPRPRPRPWLIPRP | 0.112
RRIRQRPPRLPRPRPRPVVTPRP | 0.219
RRIRPRPPRLPRPRPRPNMRPRP | 0.272
RRIRSRPPRLPRPRPRPHESPRP | -0.15
RRIRSRPPRLPRPRPRPRAPPRP | 0.716
RRIRMRPPRLPRPRPRPNSKPRP | -0.129
RRIRFRPPRLPRPRPRPSHWPRP | 0.0131
RRIRYRPPRLPRPRPRPDTAPRP | -0.343
RRIRSRPPRLPRPRPRPCGHPRP | 0.0213
RRIRHRPPRLPRPRPRPQHKPRP | -0.494
